Assay results taken from patent publication US20160368979A1 (CHEMOMAB, published 2016).

How the values were obtained:
Eotaxin 2 (CCL24), human [1] = biological target: T1, Eotaxin 2 (CCL24), human (human, UniProt O00175 27-119); assay: cell-based or functional assay
T1 sequence: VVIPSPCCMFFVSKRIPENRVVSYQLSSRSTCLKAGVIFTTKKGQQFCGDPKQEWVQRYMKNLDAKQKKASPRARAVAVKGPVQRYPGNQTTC

Eotaxin 1 (CCL11), human = Eotaxin 1 (CCL11), human (human, UniProt P51671 24-97); assay: cell-based or functional assay
RANTES (CCL5), human = biological target: T2, RANTES (CCL5), human (human, UniProt P13501 24-91); assay: cell-based or functional assay
T2 sequence: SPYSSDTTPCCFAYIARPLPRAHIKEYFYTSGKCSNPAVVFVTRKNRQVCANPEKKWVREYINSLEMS

Eotaxin 2 (CCL24), human [2] = biological target: T1, Eotaxin 2 (CCL24), human; assay: Biacore SPR (eotaxin 2 immobilised on CM-5 chip) and ELISA
Description: The affinity constant of hCM101 or murine CM101 was evaluated using Biacore T100. This method uses Surface Plasmon Resonance (SPR) electrooptical phenomenon to measure the binding constants and on/off rates between binding partners. Eotaxin 2 was covalently immobilized on a surface of a CM-5 chip, and a solution of CM101 was passed over the surface. The changes in SPR angle were measured and enabled to determine the KD.

- migration of CD14 negative cells towards Eotaxin 1, 2 and Rantes, % reduction at the high dose (Eotaxin 2 (CCL24), human [1]): ~90%
- migration of CD14 negative cells towards Eotaxin 1, 2 and Rantes, % reduction at the high dose (Eotaxin 1 (CCL11), human): ~90%
- migration of CD14 negative cells towards Eotaxin 1, 2 and Rantes, % reduction at the high dose (RANTES (CCL5), human): ~90%
- Kd (Eotaxin 2 (CCL24), human [2]): 3 nM
B1: hCM101 (fully humanized anti-eotaxin-2 monoclonal antibody, humanized variant VH1/VK3) (antibody, human IgG1, V domains shown)
VH: QIQLVQSGPELKKPGASVKVSCRASGYPFTNSGMNWVKQAPGKGLKWMGWINTYNGEPTYTDDFKGRFAFSLETSASTAYLQINNLRNEDTATYFCASHSYGSSYAMDNWGQGTSVTVSS
VL: DIVLTQSPDSLAVSLGERATINCKASQSVDYDGDSYMNWYQQKPGQPPKLLIYVASNLKSGIPARFSGSGSGTDFTLTISSLQPEDFATYYCQQSNEEPWTFGGGTKVEIK
notes: also called VH1/K3; fully humanized CM101
